{"source": "patent US20220090089A1", "about": "(BROAD INSTITUTE, published 2022)", "binders": {"B1": {"name": "PAC-tagged anti-CD4 nanobody-displaying M13 phage (phagemid pDXinit-CD4Nb-PAC) (VHH)", "VHH": "EVQLVESGGGSVQPGGSLTLSCGTSGRTFNVMGWFRQAPGKEREFVAAVRWSSTGIYYTQYADSVKSRFTISRDNAKNTVYLEMNSLKPEDTAVYYCAADTYNSNPARWDGYDFWGQGTQVTVSS", "notes": "also called anti-CD4 pNb; anti-CD4 phage nanobody; not shown: M13 phage coat protein p3, from phagemid pDXinit; 12-amino acid PAC-tag"}}, "molecular_target": "T1, CD4 on primary human peripheral blood mononuclear cells (PBMCs) (human, UniProt P01730 26-458)", "T1 construct": "whole, on cells", "experiment": "flow cytometry of phage-stained human PBMCs", "data": [{"binder": "B1", "values": [{"measurement": "binding result", "value": "binds"}]}]}
